Data: patent publication US20060142192A1 (ZymoGenetics, published 2006)

How the values were obtained:
Assay in all cases: flow cytometry, biotinylated ligand + streptavidin-PE on stably transfected BHK cells
[1] = biological target: T1, human IL-17A (biotinylated) (human, UniProt Q16552 24-155, biotin label (sites not given))
T1 sequence (looked up): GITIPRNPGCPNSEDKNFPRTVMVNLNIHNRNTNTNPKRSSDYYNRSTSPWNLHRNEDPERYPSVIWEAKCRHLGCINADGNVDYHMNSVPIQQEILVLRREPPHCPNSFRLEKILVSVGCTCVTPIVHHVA

[2] = biological target: T2, human IL-17D (biotinylated) (human, UniProt Q8TAD2 18-202, limits assumed, biotin label (sites not given))
T2 sequence (looked up): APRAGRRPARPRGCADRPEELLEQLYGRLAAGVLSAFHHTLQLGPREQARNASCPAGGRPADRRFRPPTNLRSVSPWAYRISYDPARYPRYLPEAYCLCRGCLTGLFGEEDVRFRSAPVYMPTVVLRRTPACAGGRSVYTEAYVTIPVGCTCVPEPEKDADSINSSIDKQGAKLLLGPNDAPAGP

[3] = biological target: T3, human IL-17B (biotinylated) (human, UniProt Q9UHF5 21-180, biotin label (sites not given))
T3 sequence (looked up): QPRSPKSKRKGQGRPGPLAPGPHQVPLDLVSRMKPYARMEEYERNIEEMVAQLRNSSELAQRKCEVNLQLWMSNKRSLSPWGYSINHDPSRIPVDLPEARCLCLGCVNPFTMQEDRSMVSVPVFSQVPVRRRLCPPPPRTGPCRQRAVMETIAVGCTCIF

[4] = biological target: T4, human IL-17F (biotinylated) (human, UniProt Q96PD4 31-163, biotin label (sites not given))
T4 sequence (looked up): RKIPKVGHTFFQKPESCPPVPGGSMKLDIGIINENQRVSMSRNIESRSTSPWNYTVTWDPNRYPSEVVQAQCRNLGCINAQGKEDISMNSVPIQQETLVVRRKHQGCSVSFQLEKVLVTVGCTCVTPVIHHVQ

Measured: binding result

B1: human ZcytoR21x3 (receptor)
chain: AGIGFRHLPHWNTRCPLASHTVFNGASSTSWCRNPKSLPHSSSIGDTRCQHLLRGSCCLVVTCLRRAITFPSPPQTSPTRDFALKGPNLRIQRHGKVFPDWTHKGPEFSFDLLPEARAIRVTISSGPEVSVRLCHQWALECEELSSPYDVQKIVSGGHTVELPYEFLLPCLCIEASYLQEDTVRRKKCPFQSWPEAYGSDFWKSVHFTDYSQHTQMVMALTLRCPLKLEAALCQRHDWHTLCKDLPNATARESDGWYVLEKVDLHPQLCFKFSFGNSSHVECPHQTGITEARDWPSHIQVSCSPGVPIREPQTSNCLWFVRNEATQQEARGSSPVSLDLIIPFLRPGCCVLVWRSDVQFAWKHLLCPDVSYRHLGLLILALLALLTLLGVVLALTCRRPQSGPGPARPVLLLHAADSEAQRRLVGALAELLRAALGGGRDVIVDLWEGRHVARVGPLPWLWAARTRVAREQGTVLLLWSGADLRPVSGPDPRAAPLLALLHAAPRPLLLLAYFSRLCAKGDIPPPLRALPRYRLLRDLPRLLRALDARPFAEATSWGRLGARQRRQSRLELCSRLEREAARLADLG
notes: also called hcytor21x3
no binding: all assays above
